Measurements: patent publication US5162210A, “Process for enzymatic hydrolysis of starch to glucose” (Iowa State University Research Foundation, priority 1990, dated 1992)
Positions count from the first letter of the chain named. Names and notes keep the numbering of the source.

B1: Aspergillus awamori glucoamylase, wild type (unmutated, expressed in Saccharomyces cerevisiae) (Aspergillus awamori) (protein)
chain: ATLDSWLSNEATVARTAILNNIGADGAWVSGADSGIVVASPSTDNPDYFYTWTRDSGLVLKTLVDLFRNGDTSLLSTIENYISAQAIVQGISNPSGDLSSGAGLGEPKFNVDETAYTGSWGRPQRDGPALRATAMIGFGQWLLDNGYTSTATDIVWPLVRNDLSYVAQYWNQTGYDLWEEVNGSSFFTIAVQHRALVEGSAFATAVGSSCSWCDSQAPEILCYLQSFWTGSFILANFDSSRSGKDANTLLGSIHTFDPEAACDDSTFQPCSPRALANHKEVVDSFRSIYTLNDGLSDSEAVAVGRYPEDTYYNGNPWFLCTLAAAEQLYDALYQWDKQGSLEVTDVSLDFFKALYSDAATGTYSSSSSTYSSIVDAVKTFADGFVSIVETHAASNGSMSEQYDKSDGEQLSARDLTWSYAALLTANNRRNSVVPASWGETSASSVPGTCAATSAIGTYSSVTVTSWPSIVATGGTTTTATPTGSGSVTSTSKTTATASKTSTSTSSTSCTTPTAVAVTFDLTATTTYGENIYLVGSISQLGDWETSDGIALSADKYTSSDPLWYVTVTLPAGESFEYKFIRIESDDSVEWESDPNREYTVPQACGTSTATVTDTWR
B2: Aspergillus awamori glucoamylase variant Asn182→Ala (Aspergillus awamori; N206A) (protein)
chain: B1 chain with N182A
B3: Aspergillus awamori glucoamylase variant Ser184→His (Ser→His184, S→H184) (Aspergillus awamori; S208H) (protein)
chain: B1 chain with S184H
B4: Aspergillus awamori glucoamylase variant Leu177→His (Aspergillus awamori; L201H) (protein)
chain: B1 chain with L177H
B5: Aspergillus awamori glucoamylase variant Gly183→Lys (Gly→Lys183, G→K183) (Aspergillus awamori; G207K) (protein)
chain: B1 chain with G183K
B6: Aspergillus awamori glucoamylase variant Ser119→Tyr (Ser→Tyr119, S→Y119) (Aspergillus awamori; S143Y) (protein)
chain: B1 chain with S119Y
B7: Aspergillus awamori glucoamylase variant Trp178→Arg (Aspergillus awamori; W202R) (protein)
chain: B1 chain with W178R

What was measured:
Test in all cases: purified protein, by the assay type
[1] = substrate: OC[C@H]1O[C@H](O[C@H]2[C@H](O)[C@@H](O)[C@H](O)O[C@@H]2CO)[C@H](O)[C@@H](O)[C@@H]1O
[2] = substrate: OC[C@H]1O[C@H](OC[C@H]2OC(O)[C@H](O)[C@@H](O)[C@@H]2O)[C@H](O)[C@@H](O)[C@@H]1O
[3] = substrate: OC[C@H]1O[C@H](O[C@H]2[C@H](O)[C@@H](O)[C@@H](O[C@H]3[C@H](O)[C@@H](O)[C@@H](O[C@H]4[C@H](O)[C@@H](O)[C@@H](O[C@H]5[C@H](O)[C@@H](O)[C@@H](O[C@H]6[C@H](O)[C@@H](O)[C@@H](O[C@H]7[C@H](O)[C@@H](O)C(O)O[C@@H]7CO)O[C@@H]6CO)O[C@@H]5CO)O[C@@H]4CO)O[C@@H]3CO)O[C@@H]2CO)[C@H](O)[C@@H](O)[C@@H]1O
[4] = other: 45 C., pH 4.5, 0.05M sodium acetate buffer, pH 4.5, 45.0 °C
[5] = other: pH 4.4 and 50° C., pH 4.4, 50.0 °C
[6] = other: 45 C., pH 4.5, 0.05M sodium acetate buffer

Protein | Km ([1]; other: pH 4.4 and 50° C.) [µM] | kcat ([1]; other: pH 4.4 and 50° C.) [s⁻¹] | kcat/Km ([1]; other: pH 4.4 and 50° C.) [M⁻¹ s⁻¹] | Km ([2]; other: pH 4.4 and 50° C.) [µM] | kcat ([2]; other: pH 4.4 and 50° C.) [s⁻¹] | kcat/Km ([2]; other: pH 4.4 and 50° C.) [M⁻¹ s⁻¹] | Km ([3]; other: pH 4.4 and 50° C.) [µM] | kcat ([3]; other: pH 4.4 and 50° C.) [s⁻¹] | kcat/Km ([3]; other: pH 4.4 and 50° C.) [M⁻¹ s⁻¹] | Km [1, 6] [µM] | Km [2, 6] [µM] | Km [3, 6] [µM] | other results
B1 |  |  |  |  |  |  |  |  |  |  |  |  | Km [1, 4]: 1400 µM; kcat [1, 4]: 9.1 s⁻¹; Km [1, 5]: 1730 µM; kcat [1, 5]: 14.4 ± 0.5 s⁻¹; kcat/Km [1, 5]: 8300 M⁻¹ s⁻¹; Km [2, 4]: 30300 µM; kcat [2, 4]: 0.34 s⁻¹; Km [2, 5]: 36000 µM; kcat [2, 5]: 0.487 ± 0.031 s⁻¹; kcat/Km [2, 5]: 13.5 M⁻¹ s⁻¹; Km [3, 4]: 140 µM; kcat [3, 4]: 66.2 s⁻¹; Km [3, 5]: 220 µM; kcat [3, 5]: 84 ± 2 s⁻¹; kcat/Km [3, 5]: 390000 M⁻¹ s⁻¹
B2 | 1380 | 11.6 ± 0.3 | 8400 | 64300 | 0.397 ± 0.019 | 6.18 | 260 | 65 ± 4 | 250000 |  |  |  | 
B3 |  |  |  |  |  |  |  |  |  | 900 | 26700 | 140 | 
B4 | 5300 | 2.6 ± 0.1 | 490 | 49700 | 0.0438 ± 0.0018 | 0.881 | 300 | 15.9 ± 0.8 | 53000 |  |  |  | 
B5 |  |  |  |  |  |  |  |  |  | 1100 | 39000 | 140 | 
B6 |  |  |  |  |  |  |  |  |  | 1100 | 66200 | 200 | 
B7 | 1520 | 1.86 ± 0.11 | 1220 | 73100 | 0.0728 ± 0.0027 | 0.997 | 260 | 16.6 ± 0.4 | 63000 |  |  |  | 
